Experimental findings from the supplement of paper PMC10724198 are described below.

± gives the standard deviation of the averaged measurements.
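Further: PSI is a weighted mean of sequencing reads over stability bins, variants kept only with over 10 reads, mCherry proximal and sfGFP distal, peptide attached via GGGS linker.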

For this series, the system named is Saccharomyces cerevisiae. The series is described as follows: protein stability index of tFT-peptide fusion (C-terminal peptide) (PSI (0-1 scale)); higher = more stable (slower turnover). The conditions noted are these: genetic background: wild type; temperature: 30 C.
Sequence SPPVPPLPAPAT showed a protein stability index of 0.539 ± 0.012.

SPPYPPPPVAST: the protein stability index came out at 0.707 ± 0.013.

For SPQFLLPRALSP, the protein stability index is 0.695 ± 0.0042.

SPRFSPPAILHN registered a protein stability index of 0.71 ± 0.0091.

Consider SPRKTAVIGGTT, for which the protein stability index worked out at 0.688 ± 0.034.

SPRLPAPPPPPQ had a protein stability index of 0.702 ± 0.075.

In the case of SPRLPPSPPPDL, the protein stability index amounted to 0.628 ± 0.023.

Consider SPRLRSRQVALS, for which the protein stability index was determined as 0.556 ± 0.17.

The sequence SPRLSAPPPPPP returned a protein stability index of 0.6766 ± 0.0046.

Take SPSLPSLNRCSL: the protein stability index worked out at 0.769 ± 0.016.

In turn, SPSPLPLSPSPL showed a protein stability index of 0.749 ± 0.086.

The sequence SPSPPSFRPSLH registered a protein stability index of 0.712 ± 0.12.

SPSPPSNPLPSP registered a protein stability index of 0.701 ± 0.024.

Take SPSPSSLPPPLR: the protein stability index was determined as 0.726 ± 0.052.

Regarding SPSRPQPPPLSA, the protein stability index came out at 0.738 ± 0.061.

SPSSPPSKCLSL yielded a protein stability index of 0.688 ± 0.039.

SPSSSPSPFPVP returned a protein stability index of 0.731 ± 0.063.

Sequence SPSVRSPFSLPP had a protein stability index of 0.7383 ± 0.0052.

SPTPHTLRLLPT showed a protein stability index of 0.662 ± 0.011.

Take SPTPTSLTPPDF: the protein stability index was 0.733 ± 0.049.

On to SPVGCYAIIARM, for which the protein stability index is 0.628 ± 0.042.

Regarding SPVHPSQHLWPP, the protein stability index worked out at 0.615 ± 0.021.

In the case of SPVRSQPALLVV, the protein stability index stood at 0.565 ± 0.0096.

SPWFRSAASTPT: the protein stability index is 0.786 ± 0.082.

Turning to SQLAGPPLPPPT, the protein stability index was determined as 0.751 ± 0.021.

SRAPHPPPPTLP displayed a protein stability index of 0.711 ± 0.021.

Take SRARADTSRRRA: the protein stability index was 0.7061 ± 0.0059.

SRCFGGRCQVIE: the protein stability index worked out at 0.67 ± 0.02.

In the case of SRFPPYALAHRP, the protein stability index was determined as 0.716 ± 0.2.

Consider SRGGKMRPGGGG, for which the protein stability index amounted to 0.711 ± 0.012.

SRGVSIQQSIKI showed a protein stability index of 0.726 ± 0.037.

Take SRHGFLVNMCTL: the protein stability index amounted to 0.683 ± 0.028.

Consider SRHGRTTKDFLQ, for which the protein stability index is 0.682 ± 0.014.

The sequence SRISSGKFTGAV yielded a protein stability index of 0.601 ± 0.041.

SRKKSKQYRQEK displayed a protein stability index of 0.716 ± 0.039.

SRLGFPFTGGGR yielded a protein stability index of 0.6597 ± 0.0062.

SRLPPHSPVHAS registered a protein stability index of 0.787 ± 0.042.

For SRLRFSIAPSIF, the protein stability index is 0.685 ± 0.022.

In turn, SRLRVVRCVSWV displayed a protein stability index of 0.549 ± 0.1.

SRMRADRYWRNY displayed a protein stability index of 0.622 ± 0.019.

For the sequence SRNFSIQILRER, the protein stability index is 0.659 ± 0.019.

Sequence SRPPLLPTPPPS registered a protein stability index of 0.701 ± 0.047.

SRPPTFPPFFPS returned a protein stability index of 0.702 ± 0.015.

SRPRPPPTPALP showed a protein stability index of 0.679 ± 0.0056.

For SRPRPSPSPFIA, the protein stability index worked out at 0.708 ± 0.045.

In the case of SRPSSFRLRFLH, the protein stability index was 0.393 ± 0.18.

Turning to SRRGVVGLRVGI, the protein stability index stood at 0.674 ± 0.033.

In turn, SRRSTIRCSTSC yielded a protein stability index of 0.717 ± 0.036.

Regarding SRSAPPPSPGMT, the protein stability index came to 0.746 ± 0.052.

On to SRSGVKKDIRKL, for which the protein stability index was found to be 0.657 ± 0.059.

SRSRPLCGVSGV displayed a protein stability index of 0.687 ± 0.052.

In turn, SRTLPHRTAPHC returned a protein stability index of 0.758 ± 0.054.

In turn, SRVERRRTSREG yielded a protein stability index of 0.672 ± 0.083.

Sequence SRVVHSHRSFRP came in with a protein stability index of 0.6843 ± 0.0047.

Sequence SRWDSDRGGERR registered a protein stability index of 0.805 ± 0.027.

On to SRWTLRTSMDLG, for which the protein stability index was determined as 0.616 ± 0.013.

For SSASDVYQVINS, the protein stability index is 0.676 ± 0.009.

Take SSASSLTIYTRG: the protein stability index came out at 0.728 ± 0.024.

Sequence SSCWRAWAVNGL showed a protein stability index of 0.677 ± 0.063.

Consider SSESPPLLPRPL, for which the protein stability index was 0.754 ± 0.032.

The sequence SSFGPSFLTLFF yielded a protein stability index of 0.70403 ± 0.00044.

SSFGSALRPRGV: the protein stability index is 0.677 ± 0.029.

On to SSFPPPPAAPPP, for which the protein stability index came out at 0.667 ± 0.041.

Take SSGASTSIVSTL: the protein stability index is 0.678 ± 0.015.
